Measurements: patent EP1248849B1

Target: mouse LSR (mouse) (UniProt Q99KG5)
Assay: cell-based or functional assay

Sequence of UniProt Q99KG5 (Q99KG5 36-594): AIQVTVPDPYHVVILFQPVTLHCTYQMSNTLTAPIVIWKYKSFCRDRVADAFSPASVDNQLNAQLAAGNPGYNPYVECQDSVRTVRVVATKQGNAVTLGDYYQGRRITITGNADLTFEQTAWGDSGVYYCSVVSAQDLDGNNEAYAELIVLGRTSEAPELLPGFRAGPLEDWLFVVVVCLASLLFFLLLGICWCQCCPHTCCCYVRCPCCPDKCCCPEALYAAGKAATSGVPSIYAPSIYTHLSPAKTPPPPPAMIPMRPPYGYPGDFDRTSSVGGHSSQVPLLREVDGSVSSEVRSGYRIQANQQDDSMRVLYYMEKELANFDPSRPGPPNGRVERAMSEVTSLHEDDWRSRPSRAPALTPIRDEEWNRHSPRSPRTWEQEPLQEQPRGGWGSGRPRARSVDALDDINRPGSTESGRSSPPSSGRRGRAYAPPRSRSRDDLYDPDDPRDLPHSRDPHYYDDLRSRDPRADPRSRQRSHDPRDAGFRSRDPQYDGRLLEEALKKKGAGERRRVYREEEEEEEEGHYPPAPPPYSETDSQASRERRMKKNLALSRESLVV

leptin uptake in a liver cell line (BPRCL), gOBG3 against OBG3: > 30%
Substance: 125I-mouse leptin (from UniProt P41160 22-167) (ligand)
